Experimental data from article PMC9344649, “Involvement of MdWRKY40 in the defense of mycorrhizal apple against fusarium solani”.

What was measured:
MdWRKY40 [1] = target: T1, MdWRKY40 (Malus domestica, UniProt A0A7S5ATZ6 1-302); experiment: EMSA; cold probe weakens binding; EMSA: binding buffer not specified, 24 °C, 30 min; salt and pH not stated; settings: protein: recombinant; tags: His tag, pET-32a(+) fusion; blunt
MdWRKY40 [2] = target: T1, MdWRKY40; experiment: EMSA; text says not bound; the only printed mutant is of W-box 3, so numbering of 2 and 3 is uncertain; EMSA: binding buffer not specified, 24 °C, 30 min; salt and pH not stated; settings: protein: recombinant; tags: His tag, pET-32a(+) fusion; blunt

T1 sequence (A0A7S5ATZ6 entry or part of it): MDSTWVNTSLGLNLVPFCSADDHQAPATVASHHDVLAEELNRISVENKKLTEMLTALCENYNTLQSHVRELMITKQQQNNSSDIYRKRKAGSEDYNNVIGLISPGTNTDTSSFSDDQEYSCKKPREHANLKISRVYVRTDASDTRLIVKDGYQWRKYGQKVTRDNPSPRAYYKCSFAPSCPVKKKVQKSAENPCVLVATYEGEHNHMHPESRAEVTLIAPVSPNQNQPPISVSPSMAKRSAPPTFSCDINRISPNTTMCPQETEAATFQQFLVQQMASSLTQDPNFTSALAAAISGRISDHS

B1: proMdGLU W-box 2 probe (dsDNA)
DNA 1: ATCACAAATAAAATTGATATTTGACCAACTACATGCCACGATCACA
DNA 2: TGTGATCGTGGCATGTAGTTGGTCAAATATCAATTTTATTTGTGAT
MdWRKY40 [1]
  binding result: binds

B2: proMdGLU W-box 3 probe (dsDNA)
DNA 1: CTTTCCCCCCTATAAATACTTTGACCACCAACTCCCCAATCCTCCA
DNA 2: TGGAGGATTGGGGAGTTGGTGGTCAAAGTATTTATAGGGGGGAAAG
MdWRKY40 [2]
  binding result: no binding
